Test [1] concerns the target T1, human SIRPA Fc fusion antigen (human, UniProt P78324 31-373).
T1 construct: heterologous signal peptide; not shown: human IgG1 Fc
The test is described as follows: ForteBio Fab monovalent. (In general: BLI is a label-free optical method that tracks binding on a fibre tip over time.)

Test [2] has as its target T2, biotinylated human SIRPA (monomer) (human, UniProt P78324 31-373, limits assumed, biotinylated).
T2 construct: monomer made by IdeS cleavage of a SIRPA Fc fusion; also called recombinant human SIRPA
The test is described as follows: MSD-SET, Fab, equilibrium.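 Also: solution equilibrium titration, free antigen captured on antibody-coated MSD plates and detected by electrochemiluminescence with labeled streptavidin, percent free antigen versus titrated antibody fit to quadratic model for KD.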
Description: Antibodies (20 nM in PBS) were coated onto standard bind MSD-ECL plates overnight at 4° C. or at room temperature for 30 min. Plates were then blocked with 1% BSA for 30 min with shaking at 700 rpm, followed by three washes with wash buffer (PBSF+0.05% Tween 20). SET samples were applied and incubated on the plates for 150s with shaking at 700 rpm followed by one wash. Antigen captured on a plate was detected with 250 ng/ml sulfotag-labeled streptavidin in PBSF by incubation on the plate for 3 min. The plates were washed three times with wash buffer and then read on the MSD Sector Imager 2400 instrument using 1× Read Buffer T with surfactant. The percent free antigen was plotted as a function of titrated antibody in Prism and fit to a quadratic equation to extract the KD. To improve throughput, liquid handling robots were used throughout MSD-SET experiments, including SET sample preparation.

The target in test [3] is T1, human SIRPA Fc fusion antigen. The test is described as follows: ForteBio Fab monovalent. The source holds these as a separate data set.
Description: Briefly, ForteBio affinity measurements were performed by loading immunoglobulins (IgGs) on-line onto AHQ sensors. Sensors were equilibrated off-line in assay buffer for 30 min and then monitored on-line for 60 seconds for baseline establishment. For avid binding measurement, sensors with loaded IgGs were exposed to 100 nM antigen (human SIRPA or SIRPβ1 Fc fusion) for 3 min, afterwards they were transferred to assay buffer for 3 min for off-rate measurement. […] Monovalent binding measurements were obtained by loading human SIRPA Fc fusion antigens to AHQ sensor and followed by exposure to 100 nM anti-SIRPA antibody Fab.
Additional monovalent measurements were made by loading biotinylated human SIRPA monomer to SA sensor followed by exposure to 100 nM Fab in solution. Kinetics data were fit using a 1:1 binding model in the data analysis software provided by ForteBio.
The target in test [4] is T3, human SIRPβ1 Fc fusion antigen (human, UniProt O00241 30-371).
T3 construct: not shown: human IgG1 Fc
The test is described as follows: ForteBio Fab monovalent.

Positions count from the first letter of the chain named. Where two headings read alike, the source gives them in different places.

T3 sequence (O00241 30-371 limits assumed): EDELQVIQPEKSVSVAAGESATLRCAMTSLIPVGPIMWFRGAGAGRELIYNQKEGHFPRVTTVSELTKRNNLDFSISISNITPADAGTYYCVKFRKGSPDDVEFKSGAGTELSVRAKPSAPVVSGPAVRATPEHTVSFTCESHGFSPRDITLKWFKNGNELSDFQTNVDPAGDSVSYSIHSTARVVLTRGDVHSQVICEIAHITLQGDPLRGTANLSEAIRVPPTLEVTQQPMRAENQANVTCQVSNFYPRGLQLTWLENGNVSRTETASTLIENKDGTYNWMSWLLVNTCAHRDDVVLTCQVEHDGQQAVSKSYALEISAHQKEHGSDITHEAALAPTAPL

B1: SA-28 Fab (Fab, V domains shown)
VH: QVQLQESGPGLVKPSQTLSLTCTVSGGSISSGGYYWSWIRQHPGKGLEWIGNIYYSGSTYYNPSLKSRVTISVDTSKNQFSLKLSSVTAADTAVYYCARDSDTSWGGFDYWGQGTLVTVSS
VL: EIVLTQSPGTLSLSPGERATLSCRASQSVRSSYLAWYQQKPGQAPRLLIYGASSRATGIPDRFSGSGSGTDFTLTISRLEPEDFAVYYCQQAGVSPYTFGGGTKVEIK
notes: papain Fab
A word on the Kd: it is the concentration at which binding is half-saturated. The low end stands for a tighter complex, the high end for a looser complex. B1 had a Kd in test [1] of 486 nM.

B2: SA-19-72 Fab (Fab, V domains shown)
VH: QVQLVESGGGVVQPGRSLGLSCAASGFTFSSYAMHWVRQAPGKGLEWVAGILYDGSNKYYADSVKGRFTISRDNSKNTLYLQMNSLRAEDTAVYYCARSNEKYTLGFAFDIWGQGTMVTVSS
VL: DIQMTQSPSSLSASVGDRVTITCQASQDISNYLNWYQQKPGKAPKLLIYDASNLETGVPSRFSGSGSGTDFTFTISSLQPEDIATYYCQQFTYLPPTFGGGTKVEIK
notes: papain Fab
Take B2: the Kd in test [2] came to 0.88 nM; in test [3], 4.95 nM.

B3: SA-19-81 Fab (Fab, V domains shown)
VH: B2 VH with G19R, F29S, A33G, G50V, L52A, Y59L, S99T, N100P, E101T
VL: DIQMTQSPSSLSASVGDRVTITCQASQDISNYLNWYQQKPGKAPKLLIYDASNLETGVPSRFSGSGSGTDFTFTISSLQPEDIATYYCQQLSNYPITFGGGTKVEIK
notes: papain Fab
As for B3, the figures for the Kd in test [2] and in test [3] were 0.37 nM and 1.53 nM, respectively.

B4: SA-19-84 Fab (Fab, V domains shown)
VH: B2 VH with G19R, A33G, G50V, L52A, Y59L, S99T, N100Q, E101L
VL: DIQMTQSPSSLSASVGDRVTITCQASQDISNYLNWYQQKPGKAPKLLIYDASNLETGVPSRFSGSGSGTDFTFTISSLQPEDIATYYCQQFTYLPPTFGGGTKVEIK
notes: papain Fab
In the case of B4, the Kd in test [2] came out at 0.64 nM; in test [3], 2.02 nM.

B5: SA-19-76 Fab (Fab, V domains shown)
VH: QVQLVESGGGVVQPGRSLRLSCAASGFTFSSYGMHWVRQAPGKGLEWVAVIAYDGSNKLYADSVKGRFTISRDNAKNSLYLQMNSPRAEDTAVYYCATMRTKYTLGFAFDIWGQGTMVTVSS
VL: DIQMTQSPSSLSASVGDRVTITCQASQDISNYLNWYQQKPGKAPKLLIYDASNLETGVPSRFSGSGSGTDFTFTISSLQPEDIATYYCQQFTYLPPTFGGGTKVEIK
notes: papain Fab
As for B5, the Kd was determined as 0.42 nM in test [2] and 1.64 nM in test [3].

B6: SA-19-74 Fab (Fab, V domains shown)
VH: B2 VH with G19R, T28A, S99H, N100S, E101Q
VL: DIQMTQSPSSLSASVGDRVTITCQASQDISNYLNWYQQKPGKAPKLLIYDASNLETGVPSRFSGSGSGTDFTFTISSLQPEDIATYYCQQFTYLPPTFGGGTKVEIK
notes: papain Fab
As for B6, the Kd in test [2] came to 1.1 nM; in test [3] it was 3.16 nM.

B7: SA-19-83 Fab (Fab, V domains shown)
VH: B2 VH with G19R, S30D, A33L, G50S, L52I, R98S, S99V, N100R, E101T
VL: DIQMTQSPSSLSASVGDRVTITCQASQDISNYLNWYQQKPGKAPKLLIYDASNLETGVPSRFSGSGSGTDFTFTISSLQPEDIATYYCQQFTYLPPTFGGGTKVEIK
notes: papain Fab
Consider B7, for which the Kd in test [2] was determined as 0.31 nM; in test [3], 1.44 nM.

B8: SA-36 Fab (Fab, V domains shown)
VH: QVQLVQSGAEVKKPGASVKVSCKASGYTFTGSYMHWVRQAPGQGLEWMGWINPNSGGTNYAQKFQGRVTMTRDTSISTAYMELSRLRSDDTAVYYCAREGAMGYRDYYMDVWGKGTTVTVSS
VL: EIVLTQSPATLSLSPGERATITCQASQDISSYLAWYQQKPGQAPRLLIYDASNRATGIPARFSGSGSGTDFTLTISSLEPEDFAVYYCQQRTHYPWTFGGGTKVEIK
notes: papain Fab
Take B8: in test [1], the Kd worked out at 2070 nM.

B9: SA-5-57 Fab (Fab, V domains shown)
VH: EVQLLESGGGLVQPGGSLRLSCAASGFTFDSYAMSWVRQAPGKGLEWVSATSGGGGSTYHADPVKGRFTISRDNSKNTLYLQMNSLRAEDTAVYYCAKDITDDFWSVTPPYFDLWGRGTLVTVSS
VL: DIQLTQSPSSVSASVGDRVTITCRASQDISSWLAWYQQKPGKAPKLLIYAASSLQSGVPSRFSGSGSGTDFTLTISSLQPEDFATYYCQQGYIFPRTFGGGTKVEIK
notes: papain Fab
In test [3], B9 displayed a Kd of 23.3 nM. For the same molecule, the binding result in test [4] is listed as “no binding (tested: 100 nM)”.

B10: SA-56 Fab (Fab, V domains shown)
VH: EVQLVESGGGLVKPGGSLRLSCAASGFTFSSYSMNWVRQAPGKGLEWVSSISSSSSYIYYADSVKGRFTISRDNAKNSLYLQMNSLRAEDTAVYYCARGVETYSGPNWFDPWGQGTLVTVSS
VL: B9 VL with L4M, D28G, G91A, Y92I, I93Y, R96I
notes: papain Fab; also called SA-56 (parental)
With B10, the Kd worked out at 206 nM in test [3] and 301 nM in test [1]. Further, the binding result in test [4] is on record as “no binding (tested: 100 nM)”.

B11: SA-56-85 Fab (Fab, V domains shown)
VH: EVQLLESGGGVVQPGRSLGLSCAASGSTFSYYGMSWVRQAPGKGLEWVASIWVDGSNKYYADSVKGRFTISRDNSKSTLYLQMNSLRAEDTAVYYCARGVETYSGPNWFDPWGQGTLVTVSS
VL: B9 VL with L4M, D28G, G91A, Y92I, I93Y, R96I, I106N, K107Q
notes: papain Fab
As to B11, the Kd in test [2] is 0.12 nM; in test [3] it was 0.772 nM. Also, in test [4], the binding result is “no binding (tested: 100 nM)”.

B12: SA-56-95 Fab (Fab, V domains shown)
VH: EVQLLESGGGVVQPGRSLRLSCAASGFTFAHYGMAWVRQAPGKGLEWVAVIWVDGSPKYYADSVKGRFTISRDNSKNTLYLQMNSLRAEDTAVYYCAVARETYSGPNWFDPWGQGTLVTVSS
VL: B9 VL with L4M, D28G, G91A, Y92I, I93Y, R96I
notes: papain Fab
Take B12: the results for the Kd in test [2] and in test [3] were 0.52 nM and 2.98 nM, respectively. In test [4], the binding result is “no binding (tested: 100 nM)”.

B13: SA-56-93 Fab (Fab, V domains shown)
VH: B11 VH with G19R, S27F, S77N, T78A, R98V, G99S, V100R
VL: B9 VL with L4M, D28G, G91A, Y92I, I93Y, R96I
notes: papain Fab
As for B13, the Kd was 0.36 nM in test [2] and 2.34 nM in test [3]. For the same molecule, the binding result in test [4] is “no binding (tested: 100 nM)”.

B14: SA-56-86 Fab (Fab, V domains shown)
VH: B11 VH with E1Q, L5V, R16G, G19R, S27F, N57S, S77N
VL: B9 VL with L4M, D28G, G91A, Y92I, I93Y, R96I
notes: papain Fab
With B14, the Kd stood at 0.18 nM in test [2] and 1.02 nM in test [3].

B15: SA-5-59 Fab (Fab, V domains shown)
VH: EVQLLESGGGLVQPGGSLRLSCAASGFTFDNYAMSWVRQAPGEGLEWVSAVSGSGGSTYYADSVRGRFTISRDNSKNTLYLQMDSLRAEDTAVYYCAKDTGIDFWARTPPYFDLWGRGTLVTVSS
VL: B9 VL
notes: papain Fab
For B15, in test [4], the binding result is listed as “no binding (tested: 100 nM)”.

B16: SA-56-96 Fab (Fab, V domains shown)
VH: B12 VH with A30S, H31S, G33A, A35G, P57L, V98T, A99G
VL: B9 VL with L4M, D28G, G91A, Y92I, I93Y, R96I
notes: papain Fab
B16: the Kd in test [2] worked out at 1.6 nM; in test [3] it was 5.35 nM. Besides, in test [4], the binding result is listed as “no binding (tested: 100 nM)”.

B17: SA-5-58 Fab (Fab, V domains shown)
VH: B9 VH with T51I, G54S, P63S, I100T, T101G, D102I, D103S, F104L
VL: B9 VL
notes: papain Fab
As for B17, the binding result in test [4] is on record as “no binding (tested: 100 nM)”.

B18: SA-56-88 Fab (Fab, V domains shown)
VH: B11 VH with L5V, G19R, S27F, V64A, S77N, R98E, V100K
VL: B9 VL with L4M, D28G, G91A, Y92I, I93Y, R96I
notes: papain Fab
On to B18, for which the Kd turned out to be 0.16 nM in test [2] and 0.836 nM in test [3]. Also, the binding result in test [4] is “no binding (tested: 100 nM)”.

B19: SA-56-87 Fab (Fab, V domains shown)
VH: B11 VH with L5V, G19R, S27F, S77N, R98F, V100L
VL: B9 VL with L4M, D28G, G91A, Y92I, I93Y, R96I
notes: papain Fab
For the molecule B19, the Kd came out at 0.17 nM in test [2] and 1.1 nM in test [3]. For the same molecule, the binding result in test [4] is “no binding (tested: 100 nM)”.

B20: SA-56-91 Fab (Fab, V domains shown)
VH: B12 VH with L5V, V50S, P57N, V98T, R100V
VL: B9 VL with L4M, D28G, G91A, Y92I, I93Y, R96I
notes: papain Fab
As for B20, the Kd was 0.51 nM in test [2] and 1.64 nM in test [3]. The binding result in test [4] was “no binding (tested: 100 nM)”.

B21: SA-56-89 Fab (Fab, V domains shown)
VH: B11 VH with L5V, R16G, G19R, S27F, I70V, S77N, N84D
VL: B9 VL with L4M, D28G, G91A, Y92I, I93Y, R96I
notes: papain Fab
B21: the equilibrium dissociation constant (Kd) in test [2] came to 0.25 nM; in test [3], 1.03 nM. In addition, the binding result in test [4] is on record as “no binding (tested: 100 nM)”.

B22: SA-56-92 Fab (Fab, V domains shown)
VH: B11 VH with L5V, G19R, S27F, S77N, N84D, R98T
VL: B9 VL with L4M, D28G, G91A, Y92I, I93Y, R96I
notes: papain Fab
Turning to B22, the Kd in test [2] was found to be 0.35 nM; in test [3], 1.29 nM. For the same molecule, in test [4], the binding result is on record as “no binding (tested: 100 nM)”.

B23: SA-16 Fab (Fab, V domains shown)
VH: QVQLQQWGAGLLKPSETLSLTCAVYGGSFSGYYWSWIRQPPGKGLEWIGEIDHSGSTNYNPSLKSRVTISVDTSKNQFSLKLSSVTAADTAVYYCARDLGPPGPHLDVWGQGTMVTVSS
VL: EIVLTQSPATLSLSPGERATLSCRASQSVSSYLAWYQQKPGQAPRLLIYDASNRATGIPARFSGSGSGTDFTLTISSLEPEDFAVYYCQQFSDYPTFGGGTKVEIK
notes: papain Fab
In turn, B23 had a Kd in test [1] of 257 nM.

B24: SA-39 Fab (Fab, V domains shown)
VH: QVQLVQSGAEVKKPGASVKVSCKASGYTFTSYYMVWVRQAPGQGLEWMGIINPSGGSTSYAQKFQGRVTMTRDTSTSTVYMELSSLRSEDTAVYYCAREGGYGYRAYPYGMDVWGQGTTVTVSS
VL: DIQMTQSPSSLSASVGDRVTITCQASQDISNSLNWYQQKPGKAPKLLIYDASNLETGVPSRFSGSRSGTDFTFTISSLQPEDIATYYCQQVIILPLTFGGGTKVEIK
notes: papain Fab
B24 registered a Kd in test [1] of 100 nM.

B25: SA-38 Fab (Fab, V domains shown)
VH: QVQLQESGPGLVKPSQTLSLTCTVSGGSISSGGYYWSWIRQHPGKGLEWIGSIYYSGSTYYNPSLKSRVTISVDTSKNQFSLKLSSVTAADTAVYYCAREGAYSLYVNWFDPWGQGTLVTVSS
VL: EIVMTQSPATLSVSPGERATLSCRASQSVSSSLAWYQQKPGQAPRLLIFGASTRATGIPARFSGSGSGTEFTLTISSLQSEDFAVYYCQQYDNYPPITFGGGTKVEIK
notes: papain Fab
In turn, B25 had a Kd in test [1] of 281 nM.

B26: SA-35 Fab (Fab, V domains shown)
VH: QVQLVQSGAEVKKPGASVKVSCKASGYTFTSYYMHWVRQAPGQGLEWMGIINPSGGSTSYAQKFQGRVTMTRDTSTSTVYMELSSLRSEDTAVYYCAREAGYDIKGFDYWGQGTLVTVSS
VL: DIQMTQSPSTLSASVGDRVTITCRASQSISSWLAWYQQKPGKAPKLLIYKASSLESGVPSRFSGSGSGTEFTLTISSLQPDDFATYYCQQYGSFPLTFGGGTKVEIK
For the molecule B26, binding in test [1] was characterised by a dissociation constant (Kd) of 497 nM.

The record behind these values is US20240270866A1 (Alector, published 2024).
